Laboratory results published in patent publication US20240376218A1 (published 2024).
Where a chain is given by its changes, count along the chain named.

B1: TPP-21045 (17578-gl79-hIgG1-wt-Lambda), afucosylated (antibody, V domains shown)
VH: EVQLLESGGGLVQPGGSLRLSCAASGFTFSSAWMSWVRQAPGKGLEWVSGISWSGGSTGYALSVKGRFTISRDNSKNTLYLQMNSLRAEDTAVYYCARTYSGHYGPFFDYWGQGTLVTVSS
VL: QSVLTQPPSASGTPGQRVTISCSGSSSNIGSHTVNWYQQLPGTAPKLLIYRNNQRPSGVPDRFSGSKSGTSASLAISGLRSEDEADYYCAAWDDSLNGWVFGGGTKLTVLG
modifications: afucosylated (no fucose on the N-glycan at N297)
B2: TPP-19546 (17578-gl33-hIgG1Lambda), afucosylated (antibody, V domains shown)
VH: B1 VH with L62D, F107Y
VL: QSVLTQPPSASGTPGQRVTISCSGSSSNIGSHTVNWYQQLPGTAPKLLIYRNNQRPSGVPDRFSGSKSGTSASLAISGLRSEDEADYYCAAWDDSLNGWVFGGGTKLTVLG
modifications: afucosylated (no fucose on the N-glycan at N297)
B3: TPP-19546 (17578-gl33-hIgG1Lambda), wild type (antibody, V domains shown)
VH: B1 VH with L62D, F107Y
VL: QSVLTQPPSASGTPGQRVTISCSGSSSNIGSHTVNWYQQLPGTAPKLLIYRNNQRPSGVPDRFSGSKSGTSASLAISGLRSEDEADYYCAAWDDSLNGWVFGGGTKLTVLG
B4: TPP-21045 (17578-gl79-hIgG1-wt-Lambda), wild type (antibody, V domains shown)
VH: B1 VH
VL: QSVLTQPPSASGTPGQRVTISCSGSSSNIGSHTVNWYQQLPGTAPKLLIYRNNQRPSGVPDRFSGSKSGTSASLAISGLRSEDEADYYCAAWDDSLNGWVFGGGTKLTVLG
B5: TPP-20965 (18206-gl-58-hIgG1wt-Lambda), afucosylated (antibody, V domains shown)
VH: EVQLLESGGGLVQPGGSLRLSCAASGFTFSSYGMHWVRQAPGKGLEWVSAIKWGGGSTGYADSVKGRFTISRDNSKNTLYLQMNSLRAEDTAVYYCARGHHSGKDGRFFDYWGQGTLVTVSS
VL: QSVLTQPPSVSGAPGQRVTISCTGSSSNIGAGYNVHWYQQLPGTAPKLLIYTNNRRPSGVPDRFSGSKSGTSASLAISGLRSEDEADYYCAAWDASLSGWVFGGGTKLTVLG
modifications: afucosylated (no fucose on the N-glycan at N297)
B6: TPP-17577 (497A-M178-K09-1-hIgG1Lambda), WT (antibody, V domains shown)
VH: EVQLLESGGGLLQPGGSLRLSCAASGFTFSNAWMSWVRQAPGKGLEWVAVISYDGRNKYSADSVKGRFTISRDNSKNTLYLQMNSLRAEDTAVYYCARGLPYGYWGQGTLVTVSS
VL: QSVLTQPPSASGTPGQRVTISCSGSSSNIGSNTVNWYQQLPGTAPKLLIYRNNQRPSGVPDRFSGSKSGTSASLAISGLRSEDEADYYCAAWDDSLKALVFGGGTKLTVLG
B7: TPP-17577 (497A-M178-K09-1-hIgG1Lambda), afucosylated (antibody, V domains shown)
VH: B6 VH
VL: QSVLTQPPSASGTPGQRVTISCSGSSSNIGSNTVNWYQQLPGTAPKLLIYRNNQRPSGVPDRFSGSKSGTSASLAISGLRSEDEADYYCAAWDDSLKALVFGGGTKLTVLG
modifications: afucosylated N-glycan at N297
B8: TPP-17578 (497A-M128-B10-1-hIgG1Lambda), WT (antibody, V domains shown)
VH: B1 VH with S31N, S52N, S54N, L62D, A97V, F107Y, Y110N
VL: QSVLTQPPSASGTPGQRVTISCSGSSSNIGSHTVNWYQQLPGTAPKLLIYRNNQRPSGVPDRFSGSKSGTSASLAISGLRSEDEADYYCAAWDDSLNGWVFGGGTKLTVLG
B9: TPP-17578 (497A-M128-B10-1-hIgG1Lambda), afucosylated (antibody, V domains shown)
VH: B1 VH with S31N, S52N, S54N, L62D, A97V, F107Y, Y110N
VL: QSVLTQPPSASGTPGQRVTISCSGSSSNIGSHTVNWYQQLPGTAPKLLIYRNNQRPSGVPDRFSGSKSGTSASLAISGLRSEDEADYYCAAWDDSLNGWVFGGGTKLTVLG
modifications: afucosylated N-glycan at N297
B10: TPP-18205 (004-F10_497A-M296-L12+497A-M326-O09-hIgG1Lambda), WT (antibody, V domains shown)
VH: EVQLLESGGGLVQPGGSLRLSCAASGFTFSSYAMSWVRQAPGKGLEWVSGIRWNSGSKGYAGSVKGRFTISRDNSKNTLYLQMNSLRAEDTAVYYCVRSGNYYVGYHGMDVWGQGTLVTVSS
VL: QSVLTQPPSASGTPGQRVTISCSGGNSNIGTYFVSWYQQLPGTAPKLLIYTNNQRPSGVPDRFSGSKSGTSASLAISGLRSEDEADYYCETWDSNTRVFGGGTKLTVLG
B11: TPP-18205 (004-F10_497A-M296-L12+497A-M326-O09-hIgG1Lambda), afucosylated (antibody, V domains shown)
VH: B10 VH
VL: B10 VL
modifications: afucosylated N-glycan at N297
B12: TPP-20950 (18206-gl-42-hIgG1wt-Lambda), afucosylated (antibody, V domains shown)
VH: B5 VH with T58H
VL: B5 VL
modifications: afucosylated (no fucose on the N-glycan at N297)
B13: TPP-20955 (18206-gl-47-hIgG1wt-Lambda), afucosylated (antibody, V domains shown)
VH: B5 VH with T58H, S102K, K104Y
VL: B5 VL
modifications: afucosylated (no fucose on the N-glycan at N297)
B14: TPP-19546, afucosylated (antibody, human IgG1, lambda, V domains shown)
VH: B1 VH with L62D, F107Y
VL: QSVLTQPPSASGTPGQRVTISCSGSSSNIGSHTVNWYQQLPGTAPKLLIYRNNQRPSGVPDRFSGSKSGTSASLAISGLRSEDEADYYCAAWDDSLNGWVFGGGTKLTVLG
modifications: afucosylated (no fucose on the N-glycan at N297)
B15: TPP-20950, afucosylated (antibody, human IgG1, lambda, V domains shown)
VH: B5 VH with T58H
VL: B5 VL
modifications: afucosylated (no fucose on the N-glycan at N297)

Target: T1, human CCR8 (human, UniProt P51685 1-355)
Test: cell-based or functional assay

Row | Binder | ADCP EC50 (pM); activated human Tregs donor 1163 + M2c donor 1 [pM] | ADCP Max Response (%); activated human Tregs donor 1163 + M2c donor 1 [%]
1 | B1 | 30.1 | 28
2 | B2 | – | 15
3 | B3 | – | 14
4 | B4 | 130 | 27
5 | B5 | 766 | 44

Target: human CCR8 (P51685_CCR8_HUMAN) (human, UniProt P51685 1-355)
Test: cell-based or functional assay

Row | Binder | ADCC Max Response, activated Tregs + NK92v, Donor 1213 [%] | ADCC Max Response, activated Tregs + NK92v, Donor 1730 [%] | ADCC EC50, activated Tregs + NK92v, Donor 1213 [nM] | ADCC EC50, activated Tregs + NK92v, Donor 1730 [nM]
6 | B6 | 10 | 13 | – | –
7 | B7 | 41 | 40 | 1.85 | 4.57
8 | B8 | 5 | 8 | – | 197000
9 | B9 | 25 | 38 | 9.2 | 19
10 | B10 | 20 | 24 | ~0.00558 | ~0.018
11 | B11 | 52 | 58 | 0.23 | 1.05

Target: T1, human CCR8
Test: cell-based or functional assay
Remark: another data set of the same source

Row | Binder | ADCP EC50 (pM); activated human Tregs donor 1212 + M2c macrophages [pM] | ADCP Max Response (%); activated human Tregs donor 1212 + M2c macrophages [%]
12 | B1 | 1220 | 30
13 | B2 | – | 20
14 | B12 | 128 | 32
15 | B13 | 408 | 29

Target: T1, human CCR8
Test: cell-based or functional assay
Remark: another data set of the same source

Row | Binder | ADCP EC50 (pM); activated human Tregs donor 1212 + M2c donor 3 [pM] | ADCP Max Response (%); activated human Tregs donor 1212 + M2c donor 3 [%]
16 | B1 | 9.2 | 13
17 | B12 | 23 | 14
18 | B13 | 14 | 13
19 | B5 | 163 | 14

Target: T1, human CCR8
Test: cell-based or functional assay
Remark: another data set of the same source

Row | Binder | ADCP EC50 (pM); activated human Tregs donor 1163 + M2c donor 2 [pM] | ADCP Max Response (%); activated human Tregs donor 1163 + M2c donor 2 [%]
20 | B1 | 52.9 | 28
21 | B2 | 404 | 18
22 | B3 | ~1.69e+07 | 18
23 | B4 | 162 | 27
24 | B5 | 300 | 36

Target: human CCR8 (human, UniProt P51685 1-355)
Test: cell-based or functional assay

Row | Binder | ADCC Max Response (%); activated human Tregs (Donor 1100) as target cells, NK92v effector cells [%] | ADCC hTreg EC50 (pM); activated human Tregs (Donor 1100) as target cells, NK92v effector cells [pM]
25 | B14 | 54 | 8840
26 | B15 | 97 | 9.51

Target: T1, human CCR8
Test: cell-based or functional assay
Remark: another data set of the same source

Row | Binder | ADCP EC50 (pM); activated human Tregs donor 1212 + M2c donor 4 [pM] | ADCP Max Response (%); activated human Tregs donor 1212 + M2c donor 4 [%]
27 | B1 | 17.1 | 23
28 | B12 | 10.7 | 24
29 | B13 | 13.2 | 23
30 | B5 | 563 | 23
